# Assay results from paper PMC6104087, “Structural basis for membrane tethering by a bacterial dynamin-like pair” (Nature Communications, 2018).
# B1: Cj-DLP1_(∆trunk) (natural protein)
# chain: MKELFQKIWQNELQFLNFDAKFQDKSKLDTAECAIILSVNKDNYERYFLLKEFQELCKKIDLRVDIFSMQNAQICILNLFKSGFISKQDLLKALKILEKISKNTEIFDFILQEKVQSIDQKALFQNDFKELNTINLELQKLSFDENLKSRLQKTLEKFQNLEFNIAITGVMNAGKSSLLNALLKEDFLGVSNIPETANLTVLSYGKSEEAKIYFWDKKEWQNILESSHFNADLKEFIDKLDKSVNIEDFIKDKPLIQNIALCELKNFSSAKNKISALIKKIEIKSHLEFLKNNISIVDTPGLDDVVVQREIVTNEYLRESDFLIHLMNASQSLTQKDADFLVHCLLNSRLSKFLIVLTKADLLSKKDLEEVIVYTKESLKSRLVDLDENLVEKIDFLCVSAKMASDFYKGLASKESLQKSGMQEFENYLFNELYAGEKSKIALRAYKKELHLELKNILSEYEMQNRLIKLKNQDANILNSFEENLEKIEKLKQLEMGLLNAD
# notes: Cj-DLP1 of Campylobacter jejuni (cj0411) with amino acids 470-695 (trunk) deleted; also called Cj-DLP1 with the trunk removed; source: E. coli BL21 (DE3), expressed and purified as for native
# B2: Cj-DLP2 (natural protein, Campylobacter jejuni)
# chain: MQINLLNDFIKAYENTYSVSFDDSFKGRIQELCKELNEPFMHASYALENELKELVFSLDKNVNIAIIGQFSSGKSSLLNLILGRDCLPTGVVPVTFKPTFLRYAKEYFLRVEFEDGSDIITNIEKLAFYTDQRNEVKQAKSLHIFAPIPLLEKITLVDTPGLNANENDTLTTLDELKNIHGAIWLSLIDNAGKKSEEDAIKANLELLGENSICVLNQKDKLSAEELDNVLNYAKSVFLKYFNELIAISCKEAKDEQSYEKSNFQSLLDFLTQLDTTVLKEKFVKRKILNLCEILEDENQLFVGIFDRLLNQFQSYEKHLLLAYENFLKEIEILNHQILEQLKSISERISSEIFASVKEKDAYFYKESKGFLKKDLYTRYDYKAPYISSDDAFLAMFYNSDVMSKEFKKIKNELYKSFEEIKMKLKDFINILEREILLFKAEFSNIQKDHIFQSDKNFSELRAFCNASDEYFLKDFKELLFKSILELDLFFEKLNLKAFTNYENATKLSLAFFSRKINESRVLYELDSSEFVLFYPKKSEIYERVLNELNVYEFETLLINKPILTKIAKNFLEQSQNLIQEKNKFLDLKKAELQKRRAQILNVRESIKED
# notes: Cj-DLP2, dynamin-like protein of Campylobacter jejuni, gene cj0412, 71.2 kDa; Monomer alone; Two copies stand in the 2:2 tetramer with Cj-DLP1; also called cj0412; CJ0412; source: E. coli BL21 (DE3), purified (amylose resin, TEV cleavage, gel filtration); not shown: MBP, N-terminal, cleaved
# B3: Cj-DLP2_(∆trunk-tip) (natural protein)
# chain: MQINLLNDFIKAYENTYSVSFDDSFKGRIQELCKELNEPFMHASYALENELKELVFSLDKNVNIAIIGQFSSGKSSLLNLILGRDCLPTGVVPVTFKPTFLRYAKEYFLRVEFEDGSDIITNIEKLAFYTDQRNEVKQAKSLHIFAPIPLLEKITLVDTPGLNANENDTLTTLDELKNIHGAIWLSLIDNAGKKSEEDAIKANLELLGENSICVLNQKDKLSAEELDNVLNYAKSVFLKYFNELIAISCKEAKDEQSYEKSNFQSLLDFLTQLDTTVLKEKFVKRKILNLCEILEDENQLFVGIFDRLLNQFQSYEKHLLLAYENFLKEIEILNHQILEQLKSISERMSKEFKKIKNELYKSFEEIKMKLKDFINILEREILLFKAEFSNIQKDHIFQSDKNFSELRAFCNASDEYFLKDFKELLFKSILELDLFFEKLNLKAFTNYENATKLSRVLNELNVYEFETLLINKPILTKIAKNFLEQSQNLIQEKNKFLDLKKAELQKRRAQILNVRESIKED
# notes: Cj-DLP2 of Campylobacter jejuni (cj0412) with amino acids 348-401 and 509-542 within the trunk tip removed; also called Cj-DLP2 with the trunk tip removed; source: E. coli BL21 (DE3), expressed and purified as for native; not shown: MBP, N-terminal, cleaved
# B4: Cj-DLP1 (natural protein, Campylobacter jejuni, UniProt A0A0H3PJL7 1-728, looked up)
# chain: MKELFQKIWQNELQFLNFDAKFQDKSKLDTAECAIILSVNKDNYERYFLLKEFQELCKKIDLRVDIFSMQNAQICILNLFKSGFISKQDLLKALKILEKISKNTEIFDFILQEKVQSIDQKALFQNDFKELNTINLELQKLSFDENLKSRLQKTLEKFQNLEFNIAITGVMNAGKSSLLNALLKEDFLGVSNIPETANLTVLSYGKSEEAKIYFWDKKEWQNILESSHFNADLKEFIDKLDKSVNIEDFIKDKPLIQNIALCELKNFSSAKNKISALIKKIEIKSHLEFLKNNISIVDTPGLDDVVVQREIVTNEYLRESDFLIHLMNASQSLTQKDADFLVHCLLNSRLSKFLIVLTKADLLSKKDLEEVIVYTKESLKSRLVDLDENLVEKIDFLCVSAKMASDFYKGLASKESLQKSGMQEFENYLFNELYAGEKSKIALRAYKKELHLELKNILSEYEMQNRLIKENKQGVSEENQKLLLELQKQNTLLKEAQDEISNSIAKLKNIDSGIDNLVLLLAKKLKERLIDEFKYLKNNAQKLNLSRILNIVDITTKDGINDILREIKFENIKKIEELKTNLSLKYDFLKDDFDNGFEGFKDGISKNIDSIFQSEKFALLRLKIEKLSNLKSDLYELETNLDTVIFDTFKEFKMSEILNSLNINGAFFEFLNDKLKHYEKNQKSKLESLEKVLQSLKNQDANILNSFEENLEKIEKLKQLEMGLLNAD
# notes: Cj-DLP1, dynamin-like protein of Campylobacter jejuni, gene cj0411, full-length protein, 84.5 kDa; Monomer alone; Two copies stand in the 2:2 tetramer with Cj-DLP2; also called cj0411; CJ0411; source: E. coli BL21 (DE3), purified (HisTrap, gel filtration)
# Experiments:
# Conditions in all cases: both partners purified
# [1] = biological target: B2; test: SEC-MALS; the two proteins mixed; 100 μl at 1–2 mg/ml on Superdex 200 10/300 GL in TEN 7.5 (20 mM Tris pH 7.5, 1 mM EDTA, 1 mM sodium azide), 1 mM DTT
# [2] = biological target: B4; test: crystal structure; Cj-DLP1/2 tetramer, apo (3.7 Å) and with GDP·AlF4¯ (3.9 Å), space group P2(1)2(1)2(1); sitting drop, 0.7–1.0 M succinate pH 7.0, 20 °C
# [3] = biological target: B4; test: SEC-MALS; the two proteins mixed; 100 μl at 1–2 mg/ml on Superdex 200 10/300 GL in TEN 7.5 (20 mM Tris pH 7.5, 1 mM EDTA, 1 mM sodium azide), 1 mM DTT
binder,measurement,setting,value
B1,binding result,[1],binds
B2,binding result,[2],binds
B3,binding result,[3],binds
B4,stoichiometry N,[1],1 Cj-DLP1 per Cj-DLP2 (2:2 tetramer)
